This sample holds only a part of the variants without activity.
Assays:
[1] = test system: biotinyl-Met-oxazolone; assay: self-aminoacylation, catalytic enhancement (BMO) (fold over background); higher = more active; k-Seq, kA / k0A0; sequences stand for … in GGGAAUGGAUCCACAUCUACGAAUUC…UUCACUGCAGACUUGACGAAGCUG
Procedure, shortened: (§1)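 Mutagenized RNA pools with a 21-nt variable region (0.43 μM) reacted with each biotinyl-aminoacyl-oxazolone at 2–1250 μM. Reactions ran in 50 μL HEPES/NaCl/KCl/MgCl2/CaCl2 buffer with 5% acetonitrile, pH 6.9–7.0, for 90 minutes at room temperature. Streptavidin-captured RNA was quantified by triplicate qPCR and Illumina sequencing, and per-sequence fraction reacted was fit to a pseudo-first-order model with 1000 bootstraps. Catalytic enhancement is median kA divided by the uncatalyzed rate, the low-activity peak of a bimodal Gaussian fit.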

[2] = test system: biotinyl-Ile-oxazolone; assay: self-aminoacylation, catalytic enhancement (BIO) (fold over background); higher = more active; k-Seq, kA / k0A0; sequences stand for … in GGGAAUGGAUCCACAUCUACGAAUUC…UUCACUGCAGACUUGACGAAGCUG
Procedure, shortened: as §1

[3] = test system: biotinyl-Leu-oxazolone; assay: self-aminoacylation, catalytic enhancement (BLO) (fold over background); higher = more active; k-Seq, kA / k0A0; sequences stand for … in GGGAAUGGAUCCACAUCUACGAAUUC…UUCACUGCAGACUUGACGAAGCUG
Procedure, shortened: as §1

[4] = test system: biotinyl-Val-oxazolone; assay: self-aminoacylation, catalytic enhancement (BVO) (fold over background); higher = more active; k-Seq, kA / k0A0; sequences stand for … in GGGAAUGGAUCCACAUCUACGAAUUC…UUCACUGCAGACUUGACGAAGCUG
Procedure, shortened: as §1

[5] = test system: biotinyl-Trp-oxazolone; assay: self-aminoacylation, catalytic enhancement (BWO) (fold over background); higher = more active; k-Seq, kA / k0A0; sequences stand for … in GGGAAUGGAUCCACAUCUACGAAUUC…UUCACUGCAGACUUGACGAAGCUG
Procedure, shortened: as §1

[6] = test system: biotinyl-Phe-oxazolone; assay: self-aminoacylation, catalytic enhancement (BFO) (fold over background); higher = more active; k-Seq, kA / k0A0; sequences stand for … in GGGAAUGGAUCCACAUCUACGAAUUC…UUCACUGCAGACUUGACGAAGCUG
Procedure, shortened: as §1

Row | Sequence | self-aminoacylation [1] | self-aminoacylation [2] | self-aminoacylation [3] | self-aminoacylation [4] | self-aminoacylation [5] | self-aminoacylation [6]
1 | CCACACUUCAAGAAAUCGGCC [Fam1B.1 aminoacylation ribozyme variant] | 1.97 | 1.96 | 1.78 | 2.16 | 3.06 | 3.48
2 | AUUUACAUAGGUCAUCGGGUG [Fam2.2 aminoacylation ribozyme variant] | 5.69 | 3.38 | 6.44 | 3.38 | 5.5 | 39
3 | CUACUUCAAACAAUCUGUAUG [Fam1A.1 aminoacylation ribozyme variant] | 0.647 | 0.642 | 0.607 | 0.73 | 0.471 | 0.672
4 | AAUACGCUGGUCAUCGAGUGA [Fam2.1 aminoacylation ribozyme variant] | 4.31 | 3.67 | 5 | 3.88 | 5.67 | 15.1
5 | AGGUUUGCUAAUCGUCGCAAG [Fam3.1 aminoacylation ribozyme variant] | 1.44 | 1.42 | 1.45 | 1.34 | 1.98 | 2.43
6 | ACUCACCUAGGUCAUCGGCUG [Fam2.2 aminoacylation ribozyme variant] | 2 | 2.1 | 1.31 | 3.01 | 2.35 | 7.96
7 | UUUACCCUGGUCAUCGAGUGC [Fam2.1 aminoacylation ribozyme variant] | 6.81 | 2.52 | 6.26 | 2.99 | 5.5 | 16.5
8 | AUUCACCUCGCUCAUCGGGUG [Fam2.2 aminoacylation ribozyme variant] | 3.42 | 2.57 | 3.61 | 2.74 | 3.01 | 13.5
9 | AAGUUUCCUAAUAGUCGCAUG [Fam3.1 aminoacylation ribozyme variant] | 1.89 | 2.28 | 1.94 | 1.9 | 2.11 | 2.38
10 | AUUACCCUGGUCAUGGAGCGA [Fam2.1 aminoacylation ribozyme variant] | 1.59 | 1.27 | 1.72 | 1.29 | 1.32 | 3.2
11 | AUUCAACUAGGUCAUCGGGCG [Fam2.2 aminoacylation ribozyme variant] | 2.73 | 2.48 | 3.67 | 2.36 | 2.46 | 5.35
12 | CCACACUUCUCGCAAUCGGUC [Fam1B.1 aminoacylation ribozyme variant] | 0.889 | 1.06 | 1.04 | 1.09 | 0.888 | 0.867
13 | AUUCACCUAGGUCAUCGUUUG [Fam2.2 aminoacylation ribozyme variant] | 0.542 | 0.592 | 0.556 | 0.771 | 0.31 | 0.512
14 | AUUCACCUAGAUUAUCGGGUG [Fam2.2 aminoacylation ribozyme variant] | 7.21 | 4.48 | 9 | 4.18 | 6.65 | 53.7
15 | AUUCACCUUGGUCUUCGGGUG [Fam2.2 aminoacylation ribozyme variant] | 4.81 | 3.75 | 6.07 | 4.25 | 5.01 | 37.3
16 | AUUCACCUAGUUCAUCGGUUG [Fam2.2 aminoacylation ribozyme variant] | 0.932 | 1.09 | 1.11 | 1.09 | 0.661 | 0.483
17 | AAGUUCGCUAAUAGUUGCAAG [Fam3.1 aminoacylation ribozyme variant] | 1.47 | 1.52 | 1.33 | 1.22 | 1.12 | 1.71
18 | CACCACUUCAAGCAAUCGGUC [Fam1B.1 aminoacylation ribozyme variant] | 1.33 | 1.11 | 1.83 | 1.28 | 21.8 | 40.5
19 | AUUCAGCUAGGUCAUCGGUUG [Fam2.2 aminoacylation ribozyme variant] | 1.16 | 0.882 | 1.07 | 0.865 | 1.25 | 5.67
20 | CUACUUCCAACAAGCGGUCUG [Fam1A.1 aminoacylation ribozyme variant] | 1.04 | 1.21 | 0.79 | 0.95 | 0.678 | 0.744
21 | AUUACACUGGUCUUCGAGUGA [Fam2.1 aminoacylation ribozyme variant] | 3.75 | 2.75 | 4.42 | 2.87 | 6.04 | 18.8
22 | UUUCCCCUGGUCAUCGAGUGA [Fam2.1 aminoacylation ribozyme variant] | 6.12 | 3.26 | 5.44 | 3.87 | 7.7 | 39.1
23 | GAGUUUGGUAAUAGUCGCAAG [Fam3.1 aminoacylation ribozyme variant] | 1.75 | 1.94 | 1.73 | 1.55 | 2.36 | 3.41
24 | CUACUGCAAACAAUCGGUCUA [Fam1A.1 aminoacylation ribozyme variant] | 0.868 | 0.876 | 0.858 | 0.871 | 0.72 | 0.688
25 | GUACUUCAAACAAUCGGUUUG [Fam1A.1 aminoacylation ribozyme variant] | 1.66 | 1.85 | 1.89 | 1.59 | 27.8 | 40.2
26 | CCACACUUCAACCAAACGGUC [Fam1B.1 aminoacylation ribozyme variant] | 0.628 | 0.872 | 0.729 | 0.846 | 0.727 | 0.797

Row | Sequence | self-aminoacylation [1] | self-aminoacylation [2] | self-aminoacylation [3] | self-aminoacylation [4] | self-aminoacylation [5] | self-aminoacylation [6]
27 | CUACUUCAAACAACCCGUCUG [Fam1A.1 aminoacylation ribozyme variant] | 0.657 | 0.906 | 0.911 | 1.04 | 0.923 | 0.796
28 | CAACACUUCAAGUAAUCGGUC [Fam1B.1 aminoacylation ribozyme variant] | 1.05 | 0.979 | 1.19 | 0.899 | 7.22 | 10.4
29 | CUACUUCAAACAAUAGUUCUG [Fam1A.1 aminoacylation ribozyme variant] | 0.53 | 0.624 | 0.532 | 0.511 | 0.325 | 0.553
30 | AUUACUCUGGUCAUCGAGUCA [Fam2.1 aminoacylation ribozyme variant] | 0.944 | 1.09 | 0.928 | 0.978 | 0.628 | 1.04
31 | CUACUUCAAACAAUCGGUUCG [Fam1A.1 aminoacylation ribozyme variant] | 0.615 | 0.687 | 0.63 | 0.767 | 0.98 | 2.97
32 | CUACUUCAAACGAUCGUUCUG [Fam1A.1 aminoacylation ribozyme variant] | 0.442 | 0.493 | 0.423 | 0.632 | 0.447 | 0.639
33 | CUCCUUCAAAAAAUCGGUCUG [Fam1A.1 aminoacylation ribozyme variant] | 1.09 | 1.16 | 1.3 | 1.01 | 9.62 | 11.8
34 | ACUACCCUGGUUAUCGAGUGA [Fam2.1 aminoacylation ribozyme variant] | 7.03 | 3.67 | 8.45 | 4.43 | 7.91 | 33.1
35 | CCACUUCAAACAAUCUGUCUG [Fam1A.1 aminoacylation ribozyme variant] | 0.511 | 0.723 | 0.642 | 0.641 | 1.78 | 2.99
36 | AUGUUUGCUAAUAGUCUCAAG [Fam3.1 aminoacylation ribozyme variant] | 1.12 | 1.27 | 1.01 | 1.04 | 1.43 | 5.12
37 | AAGUUUGCUAAUAGCCGAAAG [Fam3.1 aminoacylation ribozyme variant] | 0.766 | 1.09 | 1.03 | 0.677 | 1.28 | 1.6
38 | AACUUUGCUAAUAGUCACAAG [Fam3.1 aminoacylation ribozyme variant] | 1.47 | 2.2 | 1.87 | 2.09 | 2.52 | 3.95
39 | CCACACUUCACGCAAUCGGUG [Fam1B.1 aminoacylation ribozyme variant] | 5.89 | 3.09 | 7.74 | 3.5 | 6.24 | 52.2
40 | CCACACCUCGAGCAAUCGGUC [Fam1B.1 aminoacylation ribozyme variant] | 1.18 | 1.39 | 1.11 | 1.88 | 1.95 | 0.967
41 | AUUCACCUAUGUCAUCGGUUG [Fam2.2 aminoacylation ribozyme variant] | 0.874 | 0.902 | 0.919 | 0.872 | 0.892 | 0.455
42 | CUUCUUCAAAGAAUCGGUCUG [Fam1A.1 aminoacylation ribozyme variant] | 1.05 | 0.956 | 1.07 | 0.889 | 2.95 | 3.04
43 | CUACUUCAAACAAUCGGUAUA [Fam1A.1 aminoacylation ribozyme variant] | 0.607 | 0.772 | 0.661 | 0.688 | 0.725 | 1.24
44 | AAGUUUGCUAUUAGUCACAAG [Fam3.1 aminoacylation ribozyme variant] | 1.24 | 1.19 | 1.16 | 1.3 | 1.28 | 1.85
45 | ACGUUUGCUAAUAGUCGCACG [Fam3.1 aminoacylation ribozyme variant] | 2.53 | 2.43 | 2.26 | 2.05 | 2.13 | 3.42
46 | CCGUUUGCUAAUAGUCGCAAG [Fam3.1 aminoacylation ribozyme variant] | 0.83 | 1.22 | 1.02 | 0.972 | 1.1 | 1.94
47 | CCAGACUUCAAGCAAGCGGUC [Fam1B.1 aminoacylation ribozyme variant] | 0.821 | 0.87 | 1.15 | 0.932 | 0.843 | 0.523
48 | UAGUUUGCUAAUAGUCGAAAG [Fam3.1 aminoacylation ribozyme variant] | 1.09 | 1.33 | 1 | 1.15 | 3.49 | 6.07
49 | ACUCACCUAGGUCACCGGGUG [Fam2.2 aminoacylation ribozyme variant] | 3.64 | 4.71 | 7.47 | 5.05 | 7.92 | 34.2
50 | AUUACCCUGGUCACCGAGGGA [Fam2.1 aminoacylation ribozyme variant] | 2.27 | 1.67 | 1.83 | 2.39 | 3.76 | 0.887
51 | CCACACUUCAAGCAAUCUGGC [Fam1B.1 aminoacylation ribozyme variant] | 0.71 | 0.851 | 0.804 | 0.861 | 0.834 | 0.94

— the supplement of paper PMC9233669
